Numbered stars: 1 amine (or outer) side, 2 acyl side, 3 side chain; on linkers, the order of the positions; unused ones are H or OH. Bridge positions count the residues as written; N and C are the ends. Side chains are listed from the residue outwards. Ends that are not written are not given here. * marks the point of attachment. C20 diacid = O=C(O)CCCCCCCCCCCCCCCCCCC(=O)*; γGlu = O=C(O)[C@H](CCC(=O)[*:2])N[*:1]; AEEA = NCCOCCOCC(=O)O

The record followed here is US20140087995A1 (published 2014).

This test deals with T1, human calcitonin receptor (human, UniProt P30988 25-474).
T1 sequence (looked up): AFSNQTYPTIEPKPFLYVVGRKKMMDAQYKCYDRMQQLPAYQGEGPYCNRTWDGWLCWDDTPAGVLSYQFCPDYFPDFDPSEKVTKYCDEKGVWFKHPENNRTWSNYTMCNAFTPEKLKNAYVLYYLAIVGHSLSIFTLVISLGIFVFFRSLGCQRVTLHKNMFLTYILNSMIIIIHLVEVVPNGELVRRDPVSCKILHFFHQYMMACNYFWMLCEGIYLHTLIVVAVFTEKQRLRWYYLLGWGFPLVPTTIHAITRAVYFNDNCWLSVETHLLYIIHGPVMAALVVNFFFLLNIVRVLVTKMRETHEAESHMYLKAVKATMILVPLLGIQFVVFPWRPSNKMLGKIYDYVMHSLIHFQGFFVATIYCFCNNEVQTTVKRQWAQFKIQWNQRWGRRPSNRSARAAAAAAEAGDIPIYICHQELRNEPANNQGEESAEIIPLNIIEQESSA
Description: cell-based or functional assay.

B1: N^ε1-[2-[2-[2-[[2-[2-[2-[[(4S)-4-carboxy-4-(19-carboxynonadecanoylamino)butanoyl]amino]ethoxy]ethoxy]acetyl]amino]ethoxy]ethoxy]acetyl]-[Arg17,Pro21,Pro27,Arg34 … (peptide)
peptide: K([AEEA-AEEA-γGlu-C20 diacid])CNTATCATQRLANFLRHSSPNFGAIPSSTNVGRNTY-NH2
modifications: disulfide 2-7; N-terminus assumed
SMILES: CC[C@H](C)[C@H](NC(=O)[C@H](C)NC(=O)CNC(=O)[C@H](Cc1ccccc1)NC(=O)[C@H](CC(N)=O)NC(=O)[C@@H]1CCCN1C(=O)[C@H](CO)NC(=O)[C@H](CO)NC(=O)[C@H](Cc1c[nH]cn1)NC(=O)[C@H](CCCNC(=N)N)NC(=O)[C@H](CC(C)C)NC(=O)[C@H](Cc1ccccc1)NC(=O)[C@H](CC(N)=O)NC(=O)[C@H](C)NC(=O)[C@H](CC(C)C)NC(=O)[C@H](CCCNC(=N)N)NC(=O)[C@H](CCC(N)=O)NC(=O)[C@@H](NC(=O)[C@H](C)NC(=O)[C@@H]1CSSC[C@H](NC(=O)[C@@H](N)CCCCNC(=O)COCCOCCNC(=O)COCCOCCNC(=O)CC[C@H](NC(=O)CCCCCCCCCCCCCCCCCCC(=O)O)C(=O)O)C(=O)N[C@@H](CC(N)=O)C(=O)N[C@@H]([C@@H](C)O)C(=O)N[C@@H](C)C(=O)N[C@@H]([C@@H](C)O)C(=O)N1)[C@@H](C)O)C(=O)N1CCC[C@H]1C(=O)N[C@@H](CO)C(=O)N[C@@H](CO)C(=O)N[C@H](C(=O)N[C@@H](CC(N)=O)C(=O)N[C@H](C(=O)NCC(=O)N[C@@H](CCCNC(=N)N)C(=O)N[C@@H](CC(N)=O)C(=O)N[C@H](C(=O)N[C@@H](Cc1ccc(O)cc1)C(N)=O)[C@@H](C)O)C(C)C)[C@@H](C)O
notes: also called compound 95
On to B1, for which the “hCTR funct. EC50” value came to 21.5 nM.

B2: N^ε1-[2-[2-[2-[[2-[2-[2-[[(4S)-4-carboxy-4-(19-carboxynonadecanoylamino)butanoyl]amino]ethoxy]ethoxy]acetyl]amino]ethoxy]ethoxy]acetyl]-[Arg17,Pro21,Pro27,His34 … (peptide)
peptide: K([AEEA-AEEA-γGlu-C20 diacid])CNTATCATQRLANFLRHSSPNFGAIPSSTNVGHNTY-NH2
modifications: disulfide 2-7; N-terminus assumed
SMILES: CC[C@H](C)[C@H](NC(=O)[C@H](C)NC(=O)CNC(=O)[C@H](Cc1ccccc1)NC(=O)[C@H](CC(N)=O)NC(=O)[C@@H]1CCCN1C(=O)[C@H](CO)NC(=O)[C@H](CO)NC(=O)[C@H](Cc1c[nH]cn1)NC(=O)[C@H](CCCNC(=N)N)NC(=O)[C@H](CC(C)C)NC(=O)[C@H](Cc1ccccc1)NC(=O)[C@H](CC(N)=O)NC(=O)[C@H](C)NC(=O)[C@H](CC(C)C)NC(=O)[C@H](CCCNC(=N)N)NC(=O)[C@H](CCC(N)=O)NC(=O)[C@@H](NC(=O)[C@H](C)NC(=O)[C@@H]1CSSC[C@H](NC(=O)[C@@H](N)CCCCNC(=O)COCCOCCNC(=O)COCCOCCNC(=O)CC[C@H](NC(=O)CCCCCCCCCCCCCCCCCCC(=O)O)C(=O)O)C(=O)N[C@@H](CC(N)=O)C(=O)N[C@@H]([C@@H](C)O)C(=O)N[C@@H](C)C(=O)N[C@@H]([C@@H](C)O)C(=O)N1)[C@@H](C)O)C(=O)N1CCC[C@H]1C(=O)N[C@@H](CO)C(=O)N[C@@H](CO)C(=O)N[C@H](C(=O)N[C@@H](CC(N)=O)C(=O)N[C@H](C(=O)NCC(=O)N[C@@H](Cc1c[nH]cn1)C(=O)N[C@@H](CC(N)=O)C(=O)N[C@H](C(=O)N[C@@H](Cc1ccc(O)cc1)C(N)=O)[C@@H](C)O)C(C)C)[C@@H](C)O
notes: also called compound 97
Turning to B2, the “hCTR funct. EC50” value amounted to 11.8 nM.
